For 32 molecules, Kd results are on record in paper PMC10786891, “Massively parallel profiling of RNA-targeting CRISPR-Cas13d”.

To fix the notation:
B1: target 1 U8A,A18U (mixed)
RNA 1: CACCCGUGCAAAAAUGCAGGGGUCUAAAACUGAGCGGAUAACCUCUCUAUGG
RNA 2: GGGAAUGGAUCCACAUCUACGAAUUCGUACCAUUGAGAGGUUAACCGCUCACCGAGAUCGGAAGAGCACACGU
B2: target 1 insG 3' of 2,insU 3' of 1 (mixed)
RNA 1: B1 RNA 1
RNA 2: GGGAAUGGAUCCACAUCUACGAAUUCGUACCAUAGAGAGGUUAUCCGCUCGAUCCGAGAUCGGAAGAGCACACGU
B3: target 1 del20 (mixed)
RNA 1: B1 RNA 1
RNA 2: GGGAAUGGAUCCACAUCUACGAAUUCGUACCUAGAGAGGUUAUCCGCUCACCGAGAUCGGAAGAGCACACGU
B4: target 1 C6U (mixed)
RNA 1: B1 RNA 1
RNA 2: B1 RNA 2 with U34A, A44U, C46U
B5: target 1 insG 3' of 11,insG 3' of 6 (mixed)
RNA 1: B1 RNA 1
RNA 2: GGGAAUGGAUCCACAUCUACGAAUUCGUACCAUAGAGAGGUGUAUCCGGCUCACCGAGAUCGGAAGAGCACACGU
B6: target 1 A14G,C21A (mixed)
RNA 1: B1 RNA 1
RNA 2: B1 RNA 2 with C31A, U34A, A38G, A44U
B7: target 1 C7U,G13C (mixed)
RNA 1: B1 RNA 1
RNA 2: B1 RNA 2 with U34A, G39C, A44U, C45U
B8: target 1 complement block 7-9 (mixed)
RNA 1: B1 RNA 1
RNA 2: B1 RNA 2 with U34A, A43U, C45G
B9: target 1 del20,del22 (mixed)
RNA 1: B1 RNA 1
RNA 2: GGGAAUGGAUCCACAUCUACGAAUUCGUACUAGAGAGGUUAUCCGCUCACCGAGAUCGGAAGAGCACACGU
B10: target 1 A9G,C21U (mixed)
RNA 1: B1 RNA 1
RNA 2: B1 RNA 2 with C31U, U34A, A43G, A44U
B11: target 1 insC 3' of 10,insC 3' of 3 (mixed)
RNA 1: B1 RNA 1
RNA 2: B5 RNA 2 with G42U, U43C, G49C, C50U, U51C
B12: target 1 C2U,A16G (mixed)
RNA 1: B1 RNA 1
RNA 2: B1 RNA 2 with U34A, A36G, A44U, C50U
B13: target 1 G5A,G12A (mixed)
RNA 1: B1 RNA 1
RNA 2: B1 RNA 2 with U34A, G40A, A44U, G47A
B14: target 1 insG 3' of 14,insC 3' of 14 (mixed)
RNA 1: B1 RNA 1
RNA 2: B5 RNA 2 with G40C, U41G, A44U, U45A, C46U, G48C
B15: target 1 insG 3' of 18,insU 3' of 4 (mixed)
RNA 1: B1 RNA 1
RNA 2: B5 RNA 2 with A36G, G37A, A38G, G39A, U41G, G42U, G49C, C50U
B16: target 1 A1G,C22A (mixed)
RNA 1: B1 RNA 1
RNA 2: B1 RNA 2 with C30A, U34A, A44U, A51G
B17: target 1 C6G,C22G (mixed)
RNA 1: B1 RNA 1
RNA 2: B1 RNA 2 with C30G, U34A, A44U, C46G
B18: target 1 insG 3' of 2,insA 3' of 2 (mixed)
RNA 1: B1 RNA 1
RNA 2: B2 RNA 2 with U53A
B19: target 1 insA 3' of 15,insU 3' of 2 (mixed)
RNA 1: B1 RNA 1
RNA 2: B5 RNA 2 with G39A, U41G, G42U, G49C, C50U, U51C, C52U
B20: target 1 insU 3' of 12,insA 3' of 2 (mixed)
RNA 1: B1 RNA 1
RNA 2: B5 RNA 2 with G42U, G49C, C50U, U51C, C52A
B21: target 1 insA 3' of 10,insG 3' of 7 (mixed)
RNA 1: B1 RNA 1
RNA 2: B5 RNA 2 with G42U, U43A, C47G, G48C
B22: target 1 insC 3' of 8,insA 3' of 5 (mixed)
RNA 1: B1 RNA 1
RNA 2: B5 RNA 2 with G42U, U43A, A44U, U45C, G49A
B23: target 1 C6U,G13U (mixed)
RNA 1: B1 RNA 1
RNA 2: B1 RNA 2 with U34A, G39U, A44U, C46U
B24: target 1 insC 3' of 20,insC 3' of 3 (mixed)
RNA 1: B1 RNA 1
RNA 2: GGGAAUGGAUCCACAUCUACGAAUUCGUACCACUAGAGAGGUUAUCCGCUCCACCGAGAUCGGAAGAGCACACGU
B25: target 1 insA 3' of 17,insA 3' of 5 (mixed)
RNA 1: B1 RNA 1
RNA 2: B5 RNA 2 with G37A, A38G, G39A, U41G, G42U, G49A
B26: target 1 insA 3' of 10,insG 3' of 9 (mixed)
RNA 1: B1 RNA 1
RNA 2: B5 RNA 2 with G42U, U43A, U45G, C46U, G48C
B27: target 1 insA 3' of 4,insA 3' of 4 (mixed)
RNA 1: B1 RNA 1
RNA 2: B2 RNA 2 with U49A, C50A, G51U, A52C, U53A
B28: target 1 U10C,G13U (mixed)
RNA 1: B1 RNA 1
RNA 2: B1 RNA 2 with U34A, G39U, U42C, A44U
B29: target 1 C7U,A16G (mixed)
RNA 1: B1 RNA 1
RNA 2: B1 RNA 2 with U34A, A36G, A44U, C45U
B30: target 1 G5C,G12A (mixed)
RNA 1: B1 RNA 1
RNA 2: B1 RNA 2 with U34A, G40A, A44U, G47C
B31: target 1 del17,del19 (mixed)
RNA 1: B1 RNA 1
RNA 2: B9 RNA 2 with U31C, G33A
B32: target 1 insA 3' of 22,insG 3' of 7 (mixed)
RNA 1: B1 RNA 1
RNA 2: B24 RNA 2 with C31A, A32C, C33A, C47G, G48C, C49G, U50C, C51U

Residue numbers refer to the chain shown, from its start. Names may count otherwise.

The data set addresses T1, EsCas13d, nuclease-dead (Eubacterium siraeum, UniProt B0MS50, R295A;H300A;R849A;H854A).
T1 sequence: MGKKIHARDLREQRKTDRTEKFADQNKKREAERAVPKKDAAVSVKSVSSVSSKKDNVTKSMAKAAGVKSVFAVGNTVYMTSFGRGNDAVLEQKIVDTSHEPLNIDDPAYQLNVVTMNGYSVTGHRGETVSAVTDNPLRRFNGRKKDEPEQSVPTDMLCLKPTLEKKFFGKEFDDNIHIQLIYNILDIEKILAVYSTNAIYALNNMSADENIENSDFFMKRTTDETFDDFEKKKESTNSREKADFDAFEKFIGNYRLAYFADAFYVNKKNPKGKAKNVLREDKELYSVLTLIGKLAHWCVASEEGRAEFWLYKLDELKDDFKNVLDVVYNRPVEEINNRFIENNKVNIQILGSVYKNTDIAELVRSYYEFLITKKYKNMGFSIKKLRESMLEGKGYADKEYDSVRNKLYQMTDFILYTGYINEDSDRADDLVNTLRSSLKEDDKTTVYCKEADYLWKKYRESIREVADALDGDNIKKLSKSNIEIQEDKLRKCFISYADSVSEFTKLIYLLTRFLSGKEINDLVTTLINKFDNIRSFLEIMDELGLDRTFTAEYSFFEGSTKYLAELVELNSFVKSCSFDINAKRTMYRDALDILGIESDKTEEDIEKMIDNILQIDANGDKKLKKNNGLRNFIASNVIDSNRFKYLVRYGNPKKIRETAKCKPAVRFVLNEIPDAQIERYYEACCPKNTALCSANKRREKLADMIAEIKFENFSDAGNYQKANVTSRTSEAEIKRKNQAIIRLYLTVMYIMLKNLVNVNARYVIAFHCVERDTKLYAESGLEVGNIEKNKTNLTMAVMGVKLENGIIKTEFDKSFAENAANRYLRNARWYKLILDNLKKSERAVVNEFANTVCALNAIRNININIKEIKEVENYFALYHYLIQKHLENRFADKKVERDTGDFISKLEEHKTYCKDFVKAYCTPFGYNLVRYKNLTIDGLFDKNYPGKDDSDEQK
Briefly: crRNA (strand 1, pre-loaded); Mg2+; 40 mM Tris-HCl pH 7.5, 150 mM NaCl, 6 mM MgCl2, 1 mM DTT, 0.1% Tween-20, 0.2 mg/ml BSA; 25 C; 10 min per concentration, then washed. The note with it: tags: His6-TwinStrep-SUMO cleaved; N-terminal SNAP kept (SNAP-Surface 488); label: 3' end held by stalled T7 RNA polymerase.
The molecule B1 displayed a Kd of 78 ± 23 nM. To B2 belongs 9.9 ± 0.9 nM; to B3, 31 ± 1.6 nM; to B4, 8.5 ± 0.4 nM. With B5 the figure was 39 ± 4 nM; with B6, 46 ± 12 nM; with B7, roughly 70 nM. With B8 the figure was 6.54 ± 0.23 nM; with B9, 9 ± 1.2 nM. In turn, B10 returned a Kd of 9 ± 0.5 nM.

Turning to B11, the Kd is 20.2 ± 3.1 nM.

As to B12, the Kd was 39.3 ± 2.7 nM. With B13 the figure was 10.2 ± 1.5 nM; with B14, 34 ± 6 nM; with B15, 63 ± 4 nM.

B16 came in with a Kd of 12 ± 0.7 nM. With B17 the figure was 35 ± 5 nM. With B18 the figure was 10 ± 0.8 nM; with B19, 6.5 ± 0.4 nM; with B20, 7 ± 0.4 nM. B21 came in with a Kd of 12.4 ± 0.7 nM. With B22 the figure was 13.2 ± 1.2 nM; with B23, 38 ± 5 nM; with B24, 8.5 ± 0.4 nM. The molecule B25 came in with a Kd of 10.6 ± 1.1 nM. B26: the Kd was found to be 18.3 ± 0.8 nM. With B27 the figure was 5.91 ± 0.24 nM; with B28, 71 ± 18 nM.

Consider B29, for which the Kd came out at 29.9 ± 2.6 nM.

Take B30: the affinity, expressed as Kd, was 8.6 ± 0.4 nM. As for B31, the affinity, expressed as Kd, was 50 ± 5 nM. With B32, the Kd amounted to 8.62 ± 0.35 nM.
